Data on 3 substances can be found in article PMC9245003.

Common to all, as to assay: SEC-MALS
For orientation: SEC sorts molecules by how far they enter the pores of the column.

Assay [1] concerns the target gH/gL 7-mer nanoparticle (gH-C153T-IMX313 / gL) (Epstein-Barr virus | Gallus gallus) (UniProt P03231).
Assay [2] has as its target gH/gL 24-mer nanoparticle (gH-ferritin / gL) (Epstein-Barr virus | Helicobacter pylori) (UniProt P03231).
Assay [3] deals with gH/gL 60-mer nanoparticle (gH-C153T-I3 / gL) (Epstein-Barr virus) (UniProt P03231).

In general, stoichiometry N refers to a count of units in the complex or per binding partner. In assay [1], “gH/gL 7-mer nanoparticle (gH-C153T-IMX313 / gL) (from UniProt P03231;P03212) (complex)” gave a stoichiometry N of 7.

“gH/gL 24-mer nanoparticle (gH-ferritin / gL) (from UniProt P03231;P03212) (complex)” displayed a stoichiometry N in assay [2] of 24.

As to “gH/gL 60-mer nanoparticle (gH-C153T-I3 / gL) (from UniProt P03231;P03212) (complex)”, in assay [3], the stoichiometry N stood at 60.
